For this assay, the target named is high-affinity mouse IL2 receptor on CTLL-2 cells (mouse (endogenous in CTLL-2)).

The source of these data is publication PMC9625839.

In the case of “aldesleukin (FDA-approved recombinant human IL2) (from UniProt P60568 21-133) (ligand)”, the CTLL-2 cell proliferation (WST-1 absorbance), EC50 came out at 0.6 ng/mL.
